According to PMC11650718, “α-Amino-β-carboxymuconate-ε-semialdehyde decarboxylase catalyzes enol/keto tautomerization of oxaloacetate” (The Journal of Biological Chemistry, 2024):

Tests used:
O=C(O)CC(=O)C(=O)O = test system: T1, O=C(O)CC(=O)C(=O)O; assay: purified protein; format: biochemical, Pseudomonas fluorescens; conditions: HEPES pH 7.0, keto to enol form
T1 construct: recombinant from pET16b-ACMSD, purified; Zn-dependent homodimer with Arg239* from adjacent subunit

purified protein = substrate: O=C(O)CC(=O)C(=O)O; assay: purified protein; conditions: HEPES pH 7.0, Zn enzyme, keto to enol form
[1] = biological target: the molecule itself; assay: crystal structure; malonate-bound wild-type ACMSD, 10 mg/ml (270 uM); 50 mM malonate in place of Tacsimate, 0.1 M sodium citrate tribasic pH 5.6, 12% (w/v) PEG 3350; 2.21 A

For “ACMSD (pfACMSD) (Pseudomonas fluorescens; H228A)”, the Km (O=C(O)CC(=O)C(=O)O) was 570 ± 130 µM, the kcat (O=C(O)CC(=O)C(=O)O) was 2.98 ± 0.35 s⁻¹ and the kcat/Km (O=C(O)CC(=O)C(=O)O) was 5200 M⁻¹ s⁻¹.

Molecule “ACMSD (pfACMSD) (Pseudomonas fluorescens; W194A)” has a Km (O=C(O)CC(=O)C(=O)O) of 800 ± 80 µM, a kcat (O=C(O)CC(=O)C(=O)O) of 4.18 ± 0.25 s⁻¹ and a kcat/Km (O=C(O)CC(=O)C(=O)O) of 5200 M⁻¹ s⁻¹.

B1: α-amino-β-carboxymuconate-ε-semialdehyde decarboxylase (ACMSD) from Pseudomonas fluorescens KU-7 (enzyme)
chain: MKKPRIDMHSHFFPRISEQEAAKFDANHAPWLQVSAKGDTGSIMMGKNNFRPVYQALWDPAFRIEEMDAQGVDVQVTCATPVMFGYTWEANKAAQWAERMNDFALEFAAHNPQRIKVLAQVPLQDLDLACKEASRAVAAGHLGIQIGNHLGDKDLDDATLEAFLTHCANEDIPILVHPWDMMGGQRMKKWMLPWLVAMPAETQLAILSLILSGAFERIPKSLKICFGHGGGSFAFLLGRVDNAWRHRDIVREDCPRPPSEYVDRFFVDSAVFNPGALELLVSVMGEDRVMLGSDYPFPLGEQKIGGLVLSSNLGESAKDKIISGNASKFFNINV
notes: ACMSD from Pseudomonas fluorescens KU-7, UniProt Q83V25; Zinc-dependent metalloenzyme; also called pfACMSD; wild-type ACMSD; source: stored in 25 mM HEPES pH 7.0
For B1, the Km (purified protein) was 1120 ± 140 µM, the kcat (purified protein) was 6.51 s⁻¹ and the kcat/Km (purified protein) was 5800 M⁻¹ s⁻¹. B1: binds [1].
